Results on 41 sequences are retold here after the nanobody polyreactivity screen of Harvey et al. (2022).

The data set is described as follows: yeast display, Sf9 membrane polyspecificity reagent, FACS + sequencing; frameworks hold sequencing errors. Summed up: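 Sorting gates, low and high (top ~1%), were placed on anti-HA fluorescence to track expression and on streptavidin fluorescence to track reagent binding. A clone's polyreactivity label is taken from the gate it came out of. The reagent was 10% biotinylated, detergent-solubilized Sf9 membrane, applied for 1 hour at 4 °C to galactose-induced yeast display cells.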
Regarding “QVQLVESGGGLVQAGGSLRLSCAAARIFVYNAMGWYRQAPGKERELVATITSSGGITYYADSVKGRFTISRDNAKNTVYLQMKSLKPEDTAVYYCNKVRRYYYRTHNVYWGQGTQVTVSS”, the “polyreactivity (PSR sort gate)” value is “high polyreactivity”.
Take “QVQLVESGGGLVQAGGSLRLICAASGRTFYYNAMGWYRQAPGKERELVAAINRGTGGTFYADSVKGRFTISRDNAKNTVYLQMNSLKPEDTAVYYCAADLDGSSEYEYWGQGTQVTVSS”: the “polyreactivity (PSR sort gate)” value is “low polyreactivity”.
For “QVQLVESGGGLVQAGGSLRLSCAASGRIFRKNVMGWYRQAPGKERELVAAITTRGGSTYYADSVKGRFTISRDNAKNTVYLQMNSLKPEDTAVYYCATRVQWNSRYDYWGQGTQVTVSS”, the “polyreactivity (PSR sort gate)” value is “high polyreactivity”.
With “QVQLVESGGGLVQAGGSLRLSCAASGSIIYTNAMGWYRQAPGKERELVAAITGTTTTNYADSVKGRFTISRDNAKNTVYLQMNSLKPEDPAVYYCNADYDRSRVYYSVELYDYWGQGTQVTVSS”, the “polyreactivity (PSR sort gate)” value is “low polyreactivity”.
Then “QVQLVESGGGLVQAGGSLRLSCAASGRTFWSNAMGWSRQAPGKERELVAAITWSGGSTSYADSVKGRFTISRDNAKNTVYLQMNSLKTEDTAVYYCAAGKGVELAKLDYWGQGTQVTVSS”, with “low polyreactivity”; and “QDQLVESGGGLVQAGGSLRLSCAASGFIFDDNAMGGYRQAPGKERELVAAITSGGGSTYYADSVKGRFTISRDNAKYTVYLQMNSLKPEDTAVYYCNAVPSQHDEFDYWGQGTQVTVSS”, with “low polyreactivity”.
Regarding “QVQLVESGGVLVQAGGSLRLICAASGRIFGYYAMGWYRQAPGKERELVAAISNGGSTHYADSVKGRFTISRDNAKNTVYLQMNSLKPEDTAVYFCAAKASRVDWGYGYWGQATQVTVSS”, the “polyreactivity (PSR sort gate)” value was “high polyreactivity”.
For the sequence “QVQLVESGGGLVQAGGSLRLSCAASGFTFKFYAMGWYRQAPGKERELVAAISGSGDSTYADSVKGRFTISRDNAKNTVYLQINSLKPEDTAVYYFNGRYAGVPWWGYYSRFDYWGQVTQVTVSS”, the “polyreactivity (PSR sort gate)” value was “low polyreactivity”.
Then “QGQLEESGGGLVQAGGSLRLSCAASGSIFTLYAMGWYRQAPGKERELVAAITRSGGSTYYADSVKGRFTISRDNAKNTVYLQMNSLKPEDTAVYYCAADKAPYSTEGDYWGQGTQVTVSS”, with “high polyreactivity”; and “QVQLVESGGGLYQAGGSLRLSCAASGRIFATNAMRWSRQAPGKERELVATITRSAGRTYYADSVKGRFTISRDNAKNTVYLQMNSLKPEDTAVYYCAASYWDTEPGYREYDYWGQGTQVTVSS”, with “low polyreactivity”.
The entry for “QVQLVESGGGLVQAGGSLRLSCAASGSTFPYYGMGWYRQAPGKERDLVAVISRRGTGTYYADSVKGRFTISRDNAKNTVYLQMNSLKPEDTAVYYCNTDTHGPGPTFDHYDYWGQGTQVTVSS” is “low polyreactivity”.
The entry for “QVQLVESGGGLVQAGGSLRLSCAASGSTFGHYAMGWYRQAPGKERELVAGITYTDNHELRRLCEGRFTISRDNAKNTVYLQMNSLKPEDTAVYYCNADDTYYPLGGITGYDYWGQGTQVTVSS” is “low polyreactivity”; for “PVQLVESGGGLVQAGGSLRLSCAASGSTFTSNAMGWYRQAPGKERELVAAIDRNGGRTYYADSVNGRFTISRDNAKNTVYLQMNSMKPEDTEVYYCAVLSKYRRTFGSWGQGTLVTVSS” it is “high polyreactivity”; for “QVQLVESGGGLVQAGGSLRLSCAASGITFKYYTMGWYRQAPGKERELVASINNDGSTYYADSVKGRFTISRDNAKNTVYFQMNSLKPEDTAVYYCAASGYGWFWYDYWGHGTQVTVSS” it is “high polyreactivity”.
Regarding “QVQLVESGGGLVQAGGSLRLSCAASGRTLRIYAMGWYRQAPGKERELVAAITSSGRTNYADSVKGRFTISRDNAKNTVYLQMNSLKPEDTAVYYCAAVTPAVNYFRAASGYYYWGQGTQVTVSS”, the “polyreactivity (PSR sort gate)” value is “low polyreactivity”.
Then “QVQLVESGGGLVQAGGSLRLSCAASGRIFWQNAMGWYRQAPGKERELVAAISSRGGTTYYADSVKGRFTISRDNAKNTVYLQMNSLIPEDTAVYYCNAALLLRYRGFFTVAAYDYWGQGTQVTVSS”, with “low polyreactivity”; and “QVQLVESGGGLVQAGGSLRLSCAASGRISRVYAMGWYRQAPGKERELVAAITSSGGSTYADSVKGRFTISRDNAKNTVYLQMNSLKPEDTAVYYCAADSYWYRFLKSRYDYWGQGTQVTVSS”, with “low polyreactivity”; and “QVQLVESGGGIVQAGGSLRLSCAASGFTIPRYAMGWYRQAPGKERELVAAITVGGGRTYYADSVKGRFTISRDNAKNTVYLQMNSLKPEDTAVYYCAADSHASTYDYWGQGTQVTVSS”, with “low polyreactivity”.
Consider “QVQLVESGGGLVQAGGSLRLSCAASGSIFRFYAMGWYRQAPGKERELVAAISSGGSTYYADSVKGRFTISRDNAKNTVYLQMKSLKPEDTAVYYCAHGFAQYGLDLDPGDYDYWGQGTQVTVSS”, for which the “polyreactivity (PSR sort gate)” value is “low polyreactivity”.
Then “QVQLVESGGGLVQAGGSLRLSCAASGSIFDYNTMGWYRQAPGKERELVAAISSGGSTYYADSVKGRFTISRDNAKNTVYLQMNSLKPEDTAVYYCAARRAGWWGFYYWGQGTQVTVSS”, with “high polyreactivity”; and “QVQLVESGGGLVQAGGSLRLSCAASGRIFYYNAMGWYRQAPGKEMELVAAITSGGSTNYADSVKGRFTISRDNAKNTVYLQMNSLKPEDTAVYYCAADYYYYVAGVHYDYWGQGTQVTVSS”, with “low polyreactivity”; and “QAQLVESGGGLVQAGGSLRLSCAASGRTSYRYVMGWYIQAPGKERELVAAISRGGRTYYADSVKGSFTISRDNAKYTVYLQMNSLNPEVTAVYYCNAAFGVYVATGDSFPRHKKFGFWGQGTQVTVSS”, with “high polyreactivity”.
The entry for “QVQLVESGGGLVQAGGSLRLSCAASGRIFYRYAMGWYRQAPGKEREFVAAISGTGGSTYYADSVKGRFTISRDNAKNTVYLQMNSLKPEDTAVYYCAASVVSRPTYYAYYYWGQGTQVTVSS” is “high polyreactivity”.
Then “QVQLVESGGGLVQAGGSLRLSCAASGRIFARYAMGWYRQAPGTERELVASITRSGGSTYYADSVKGRFTISRDNAKNTVYLQMNSLKPEDTAVYYCAARYGRVRDVIPYDYWGQGTQVTVSS”, with “high polyreactivity”; and “QVQLVESGGGLVQAGGSLRLSCAASGLTFGAYAMGWYRQAPGKEREFVAAITYSGGSTNYADSVKGRFTISRDNAKNTVYLQMNSLKPEDTAVYSCNAGYYSPWAFYPYDYWGQGTQVTVSS”, with “high polyreactivity”; and “QVQLVESGGGLVQAGGSLRLSCAASGRIFSLYTMGWYRQAPGKERELVATINRSSVSTRYADSVKGRFTISRDNAKNTGYLQMNSLKPEDTAVYYCAAQRSTRYPLYYWGQGTQVTVSS”, with “high polyreactivity”.
With “QVQLVDSGGRLVHAGGSLRLSCAASGRTIYRNAMGLYRQAPGKERELVAAISSDDSTNYSDSVKGRFTISRDNAKNTVYFQMNSLKPEDTAVYYCNADYYYGYDYDYWGQGSQVTVSS”, the “polyreactivity (PSR sort gate)” value is “low polyreactivity”.
Then “QVQLVESGGGLVQAGCSLRLSCAASGRTFRYYAMGWYRQAPGKERELVAAISGRGGSTYYADSVKGRFTISRDNAKNTVYFQMNSLKPEDTAVYYCADSFYSIRYDYWGQGTQVTVSS”, with “high polyreactivity”.
As for “QVQLVESGGGLVQAGGSLRLSCAASGSIFFNYAMGWYRQAPGKERELVAAITRSGGSTYYADSVKGRFTISRDNAKNTVYLQMNSLKPEDTAVYYCAARYPFGSLGRYGYWGQGTQVTVSS”, the “polyreactivity (PSR sort gate)” value is recorded as “high polyreactivity”.
As for “QVQLVESGGGLVQAGGSLRLSCAASGSNFSDNAMGWYRQAPRKERELVAAITSGGSTYYADSVKGRFTISRDKAKNTVYLQMNSLKPEDSAVYYCAADYWGQGTQVTVSS”, the “polyreactivity (PSR sort gate)” value is listed as “low polyreactivity”.
Then “QVHHVESGGGLVQAGGSLRLSCAASGRIFSYYAMGRYRPAPGKERELVAAITSRGTRTYYADSVKGRFTISRDNAKNTVYLQMNSLKPDDTAVYYCNVVSDIRLYFRFAYDYWGQGTQVTVSS”, with “high polyreactivity”; and “QVQLVESGGGLVHAGGSLRLSCAASGSTSVYYAMGWYRQTPGKERELVAAITWDDGSTSYADSVKGRFTISRDNAKNTVYLQMNSLNPEDTAVYYCAKDYEYLGAFNYWGQGTQVTVSS”, with “low polyreactivity”; and “QVQLVESGGGLVQAGGSLRLSCAASGFTFAVNAMGWYRQAPGKERELVAAISKSGGRTYYADSVKGRFTISRDNAKNTVYLQMNSLKPEDTAVYYCAAEGPGYTYDYWGQGTQVTVSS”, with “high polyreactivity”.
Turning to “QVQLVESGGGLVQAGGSLRLSCAASGRIFYSNAMGWYRQAPGKERELVAAISSSGGSTYYADSVKGRFTISRDNAKNTVDLQMNSLKPEDTAVYYCNAVHARYRSQGDYWGQGTQVTVSS”, the “polyreactivity (PSR sort gate)” value is on record as “low polyreactivity”.
“QVQLVESGGGLVQAGGSLRLSCAASGLIFRRYAMGWYRQAPGKERELVAAISRTGGTTYYADSVKGRFTISRDNAKNTVYLQMNSLKPEDTAVYYCAAAGQGPDYDYWGQGTQVTVSS”: the “polyreactivity (PSR sort gate)” value is “high polyreactivity”.
The entry for “QVQLVESGGGLVQAGGSLRLSCAASGFTFSPNAMGWDRQAPGKERELVATISWNGGRTHYADSVKGRFTISRDNANKTVYLQMNSLKPEDTAVYYCNVVRATGRYYYWGQGTQVTVSS” is “high polyreactivity”; for “QVQLVESGGGLVQAGGSLRLSCAASGRIFYKYVMGGYRQAPGKARVLVAAINRSGGTTYYADSVKGRFTISRDNAKKTVYLQMNSQKPEDTAVYYCNATLPAYWPYYYYQGGDDYWGQGTQVTVSS” it is “low polyreactivity”.
Then “QVQLVESGGGLVQAGGSLRLSCAASGFIFAPNAMGWYRQAPGKERELVAAISHSGASTFYADSVKGRFTISRDNAKNTVYLQMNSLKPEDTAVYYCAAPPYYSYDYWGQGTQVTVSS”, with “low polyreactivity”; and “QVQLVESGGGLVQAGGSLRISCAASGRIFRAYAMGWYRQAPGKERELVADIRSTGSTNYADSVKGRFTISRDNAKNTVYLQMNSLNPEDTAGYYCAARWRSLRFGSGFEYWGQGTQVTVSS”, with “high polyreactivity”; and “QVQLVESGGGLVQAGGSLRLSCAAYGSILLRYAMGWYRQAPGKERELVAAIRTIGASTYYADSVKGRFTISRDNAKNTVYLQMNSLKPEDTAVYYCNGYLAEVLQLGKCRLYDYWGQSTQVTVSS”, with “low polyreactivity”.
Then “QVQLVESGGGLVQAGGSLRLSCAASGFNYYTMGWYRQAPGKERELVAAINYSGGRTYYADSVKGRFTISRDNAKNTVYLQMNSLKPEDTAVYYCNTARSPYDHRPERSYDYWGLGTQVTVSS”, with “high polyreactivity”.
